# Laboratory results reported in patent US20240158494A1 (Biogen, published 2024).
# Substitutions are numbered along the chain they refer to. In names and notes the source's numbering stands.
# B1: TfR1 ANTIBODY-B HC-H4C hIgG1 Fab′(1C)/LC-L2 hKappa (Fab, V domains shown)
# VH: QSLVESGGGVVQPGRSLRLSCKASGFSFSNSYWICWVRQAPGKGLEWVGCINTDADSTNYASWARGRFTISKTSSTTVYLQMNSLRAEDTAVYYCARQNNVFDPGYNLWGPGTLVTVSS
# VL: ELVLTQSPSTLSASVGDRVTITCRASQNIGSNLAWYQQKPGKAPKLLIYDASKLESGVPSRFSGSGSGTEFTLTISSLQPDDFATYYCQCTVRGGAYGNAFGGGTKVEIKR
# notes: also called ANTIBODY-B H4C/L2; exemplary construct (v)
# B2: TfR1 ANTIBODY-B HC-H1C hIgG1 Fab′(1C)/LC-L2 hKappa (Fab, V domains shown)
# VH: QSLVESGGGVVQPGRSLRLSCAASGFSFSNSYWICWVRQAPGKGLEWVGCINTDADSTNYADSVKGRFTISKDNSKNTVYLQMNSLRAEDTAVYYCARQNNVFDPGYNLWGQGTLVTVSS
# VL: B1 VL
# notes: also called ANTIBODY-B H1C/L2; TfRANTIBODY-B HC-H1C/LC-L2 hIgG1Fab′(1C)
# B3: TfR1 ANTIBODY-B HC-H3C hIgG1 Fab′(1C)/LC-L2 hKappa (Fab, V domains shown)
# VH: B2 VH with D62S, S63W, V64A, K65R, V79L
# VL: B1 VL
# notes: also called ANTIBODY-B H3C/L2; TfRANTIBODY-B HC-H3C/LC-L2 hIgG1Fab′(1C)
# B4: TfR1 ANTIBODY-B HC-H2C hIgG1 Fab′(1C)/LC-L2 hKappa (Fab, V domains shown)
# VH: B1 VH with S62D, W63S, A64V, R65K, T73D, P111Q
# VL: B1 VL
# notes: also called ANTIBODY-B H2C/L2
# B5: TfR1 ANTIBODY-B HC-H4 hIgG1 Fab′(1C)/LC-L2 hKappa (Fab, V domains shown)
# VH: B1 VH with C35A, G49A, C50A
# VL: B1 VL
# notes: also called ANTIBODY-B H4/L2
# B6: TfRANTIBODY-B HC-H1C/LC-L2 (C90T) hIgG1Fab′(1C) (Fab, V domains shown)
# VH: B2 VH
# VL: B1 VL with C90T
# notes: also called ANTIBODY-B H1C/L2(C90T)
# B7: TfRANTIBODY-B HC-H4C/LC-L2 (C90S) hIgG1Fab′(1C) (Fab, V domains shown)
# VH: B1 VH
# VL: B1 VL with C90S
# notes: also called ANTIBODY-B H4C/L2(C90S); H4C (C90S)/L2
# B8: TfRANTIBODY-B HC-H4C/LC-L2 (C90T) hIgG1Fab′(1C) (Fab, V domains shown)
# VH: B1 VH
# VL: B1 VL with C90T
# notes: also called ANTIBODY-B H4C/L2(C90T); H4C (C90T)/L2
# B9: TfRANTIBODY-B HC-H1C/LC-L2 (C90S) hIgG1Fab′(1C) (Fab, V domains shown)
# VH: B2 VH
# VL: B1 VL with C90S
# notes: also called ANTIBODY-B H1C/L2(C90S)
# B10: TfR1 ANTIBODY-A HC-H4C hIgG1 Fab′(1C)/LC-L1 hKappa (Fab, V domains shown)
# VH: QSLVESGGGLVQPGGSLRLSCKASGIDFSSSGYMCWVRQAPGKGLEWVGCIYTYSSNTYYASWAKGRFTISKTSSTTVYLQMNSLKTEDTAVYYCARGTYGYTGYTYTMGYFSLWGPGTLVTVSS
# VL: DIQMTQSPSTLSASVGDRVTITCQASQNINSYLAWYQQKPGKAPKLLIYRASTLASGVPSRFSGSGSGTEFTLTISSLQPDDFATYYCQSYYYSGSSNYNAFGGGTKVEIKR
# notes: also called ANTIBODY-A H4C/L1
# B11: TfR1 ANTIBODY-A HC-H2C hIgG1 Fab′(1C)/LC-L1 hKappa (Fab, V domains shown)
# VH: B10 VH with K22A, S62A, W63S, A64V, P117Q
# VL: B10 VL
# notes: also called ANTIBODY-A H2C/L1
# B12: TfR1 ANTIBODY-A HC-H3C hIgG1 Fab′(1C)/LC-L0 hKappa (Fab, V domains shown)
# VH: B10 VH with T73D, S75K, T76N, T77S
# VL: B10 VL with T53S, A55E
# notes: also called ANTIBODY-A H3C/L0; TfRANTIBODY-A HC-H3C hIgG1Fab′(1C)/LC-L0 hKappa
# B13: TfR1 ANTIBODY-A HC-H4C hIgG1 Fab′(1C)/LC-L0 hKappa (Fab, V domains shown)
# VH: B10 VH
# VL: B10 VL with T53S, A55E
# notes: also called ANTIBODY-A H4C/L0
# B14: TfR1 ANTIBODY-A HC-H3C hIgG1 Fab′(1C)/LC-L1 hKappa (Fab, V domains shown)
# VH: B10 VH with T73D, S75K, T76N, T77S
# VL: B10 VL
# notes: also called ANTIBODY-A H3C/L1
# Molecular target: T1, human transferrin receptor 1 (TfR1), full length, expressed on cells (human, UniProt P02786 1-760)
# T1 construct: also called human TfR1; huTfR
# Assay: FACS on Ba/F3 cells, purified Fab
row,Binder,EC50 [nM]
1,B1,4.8
2,B2,8.2
3,B3,5.5
4,B4,6.5
5,B5,9.8

# Molecular target: T2, cynomolgus monkey transferrin receptor 1 (TfR1), full length, expressed on cells (cynomolgus monkey, UniProt Q5RDH6 1-760 (Pongo abelii entry))
# T2 construct: also called cyno TfR1; cyTfR
# Assay: FACS on Ba/F3 cells, purified Fab
row,Binder,EC50 [nM]
1,B1,2
2,B2,2.3
3,B3,1.9
4,B4,2.6
5,B5,3.4

# Molecular target: T1, human transferrin receptor 1 (TfR1), …
# Assay: FACS on Ba/F3 cells, purified Fab
# Remark: another data set of the same source
row,Binder,EC50 [nM]
1,B6,13.6
2,B7,7.3
3,B8,5.1
4,B9,6.1

# Molecular target: T2, cynomolgus monkey transferrin receptor …
# Assay: FACS on Ba/F3 cells, purified Fab
# Remark: another data set of the same source
row,Binder,EC50 [nM]
1,B6,3.2
2,B7,1.5
3,B8,3.4
4,B9,3.2

# Molecular target: T3, recombinant human TfR1 extracellular domain, His-tagged (human, UniProt P02786 89-760)
# T3 construct: also called Human TfR1 ECD; human TfR1 ECD-His
# Assay: SPR, TfR1 ECD-His captured, Fab injected, 1:1 fit
Binder,Kd [nM],koff [s⁻¹],kon [M⁻¹ s⁻¹]
B10,0.91,0.000894,983000
B11,1.2,0.000947,773000
B12,1.4,0.0012,835000
B13,0.99,0.000878,887000
B14,1.2,0.00126,1.02e+06
B1,3.4,0.000767,223000
B2,6.7,0.00115,171000
B3,7.4,0.00147,200000
B4,5.8,0.000999,170000
B5,11.6,0.00155,134000

# Molecular target: T4, recombinant cynomolgus monkey TfR1 extracellular domain, His-tagged (cynomolgus monkey, UniProt Q5RDH6 87-760 (Pongo abelii entry))
# T4 construct: also called Cyno TfR1 ECD; cyno TfR1 ECD-His
# Assay: SPR, TfR1 ECD-His captured, Fab injected, 1:1 fit
Binder,Kd [nM],koff [s⁻¹],kon [M⁻¹ s⁻¹]
B10,2.6,0.0114,4.4e+06
B11,3,0.0195,6.56e+06
B12,2.5,0.0103,4.1e+06
B13,3.3,0.00583,1.75e+06
B14,4.1,0.0106,2.58e+06
B1,0.7,0.000279,398000
B2,1.3,0.000425,315000
B3,1.7,0.000608,348000
B4,1.1,0.000472,445000
B5,2.2,0.000508,228000

# Molecular target: T1, human transferrin receptor 1 (TfR1), …
# Assay: FACS on Ba/F3 cells, purified Fab
# Remark: another data set of the same source
row,Binder,EC50 [nM]
1,B10,1.8
2,B11,1.3
3,B12,1.6
4,B13,1.4
5,B14,1.5

# Molecular target: T2, cynomolgus monkey transferrin receptor …
# Assay: FACS on Ba/F3 cells, purified Fab
# Remark: another data set of the same source
row,Binder,EC50 [nM]
1,B10,2.4
2,B11,3.3
3,B12,5
4,B13,2
5,B14,5.5

# Molecular target: T1, human transferrin receptor 1 (TfR1), …
# Assay: FACS on Ba/F3 cells, Fab supernatant
row,Binder,EC50 [nM]
1,B10,2.2
2,B11,2.6
3,B12,2.5
4,B13,1.4
5,B14,2.1

# Molecular target: T2, cynomolgus monkey transferrin receptor …
# Assay: FACS on Ba/F3 cells, Fab supernatant
row,Binder,EC50 [nM]
1,B10,1.8
2,B11,3.3
3,B12,2.7
4,B13,1.8
5,B14,4.5

# Molecular target: T1, human transferrin receptor 1 (TfR1), …
# Assay: FACS on Ba/F3 cells, Fab supernatant
# Remark: another data set of the same source
row,Binder,EC50 [nM]
1,B12,1.1
2,B2,10.1

# Molecular target: T2, cynomolgus monkey transferrin receptor …
# Assay: FACS on Ba/F3 cells, Fab supernatant
# Remark: another data set of the same source
row,Binder,EC50 [nM]
1,B12,1.5
2,B2,2.8

# Molecular target: T1, human transferrin receptor 1 (TfR1), …
# Assay: FACS on Ba/F3 cells, Fab supernatant
# Remark: another data set of the same source
row,Binder,EC50 [nM]
1,B1,4.7
2,B2,3.8
3,B3,6.8
4,B4,3.3
5,B5,2.3

# Molecular target: T2, cynomolgus monkey transferrin receptor …
# Assay: FACS on Ba/F3 cells, Fab supernatant
# Remark: another data set of the same source
row,Binder,EC50 [nM]
1,B1,2.9
2,B2,2.8
3,B3,2.6
4,B4,2.2
5,B5,4.6

# Molecular target: T1, human transferrin receptor 1 (TfR1), …
# Assay: FACS on Ba/F3 cells, Fab supernatant
# Remark: another data set of the same source
row,Binder,EC50 [nM]
1,B1,5.4
2,B2,5.9
3,B3,7
4,B6,12.6
5,B7,11.3
6,B8,7.7
7,B9,14.9

# Molecular target: T2, cynomolgus monkey transferrin receptor …
# Assay: FACS on Ba/F3 cells, Fab supernatant
# Remark: another data set of the same source
row,Binder,EC50 [nM]
1,B1,1.9
2,B2,2.3
3,B3,4
4,B6,5.4
5,B7,3.3
6,B8,2.9
7,B9,4.4
